Patent publication US20250320281A1

Legend:
Assay in all cases: cell-based or functional assay
[1] = biological target: HIV-1 Env of isolate 92UG005 (HIV-1)
[2] = biological target: HIV-1 Env of isolate CAAN.A2 (subtype B) (HIV-1)
[3] = biological target: HIV-1 Env of isolate MGRM-A-004 (HIV-1)
[4] = biological target: HIV-1 Env of isolate MGRM-A-008 (subtype A) (HIV-1)
[5] = biological target: HIV-1 Env of isolate MGRM-AG-011 (subtype AG) (HIV-1)
[6] = biological target: HIV-1 Env of isolate MGRM-AG-013 (subtype AG) (HIV-1)
[7] = biological target: HIV-1 Env of isolate MGRM-Chronic-B-008 (subtype B) (HIV-1)
[8] = biological target: HIV-1 Env of isolate TRJ04551.58 (subtype B) (HIV-1)
[9] = biological target: HIV-1 envelope glycoprotein (Env) of isolate MGRM-C-007 (HIV-1)
[10] = biological target: HIV-1 envelope glycoprotein (Env) of isolate MGRM-C-012 (HIV-1)
[11] = biological target: HIV-1 envelope glycoprotein (Env) of isolate MGRM-C-024 (HIV-1)
[12] = biological target: HIV-1 envelope glycoprotein (Env) of isolate MGRM-C-028 (HIV-1)
[13] = biological target: HIV-1 Env of isolate 93TH305 (subtype B pseudovirus) (HIV-1)
[14] = biological target: HIV-1 Env of isolate MGRM-AG-011 (HIV-1)
[15] = biological target: HIV-1 Env of isolate MGRM-Chronic-B-002 (subtype B pseudovirus) (HIV-1)
[16] = biological target: HIV-1 Env of isolate MGRM-Chronic-B-008 (subtype B pseudovirus) (HIV-1)
[17] = biological target: HIV-1 Env of isolate MGRM-Chronic-B-020 (subtype B pseudovirus) (HIV-1)
[18] = biological target: HIV-1 Env of isolate MGRM-D-024 (pseudovirus) (HIV-1)
[19] = biological target: HIV-1 Env of isolate MGRM-D-028 (pseudovirus) (HIV-1)
[20] = biological target: HIV-1 Env of isolate MGRM-F1-016 (HIV-1)
[21] = biological target: HIV-1 Env of isolate MGRM-F1-020 (HIV-1)
[22] = biological target: HIV-1 Env of isolate MGRM-F1-022 (HIV-1)
[23] = biological target: HIV-1 Env of isolate NL43 (subtype B pseudovirus) (HIV-1)
[24] = biological target: HIV-1 92BR020 Env (pseudovirus) (HIV-1)
[25] = biological target: HIV-1 93UG077 Env (pseudovirus) (HIV-1)
[26] = biological target: HIV-1 93UG077 Env (pseudovirus, clade A) (HIV-1)
[27] = biological target: HIV-1 APV17 Env (pseudovirus) (HIV-1)
[28] = biological target: HIV-1 MGRM-C-026 Env (pseudovirus, clade C) (HIV-1)
[29] = biological target: HIV-1 MGRM-D-001 Env (pseudovirus) (HIV-1)
[30] = biological target: HIV-1 NL43 Env (pseudovirus, clade B) (HIV-1)
[31] = biological target: HIV-1 Env of isolate MGRM-G-014 (HIV-1)
[32] = biological target: HIV-1 Env of isolate MGRM-G-016 (HIV-1)

Chain of 5329_C19 (PGT-136) (antibody) (VH): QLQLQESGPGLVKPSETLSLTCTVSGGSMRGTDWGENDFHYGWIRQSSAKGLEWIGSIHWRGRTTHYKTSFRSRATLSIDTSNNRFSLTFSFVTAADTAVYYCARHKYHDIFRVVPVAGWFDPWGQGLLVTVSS
Chain of 5329_C19 (PGT-136) (antibody) (VL): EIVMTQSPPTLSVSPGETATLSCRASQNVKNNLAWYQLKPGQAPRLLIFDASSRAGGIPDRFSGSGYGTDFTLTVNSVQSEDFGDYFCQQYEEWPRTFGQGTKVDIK
Chain of 5345_I01 (PGT-137) (antibody) (VH): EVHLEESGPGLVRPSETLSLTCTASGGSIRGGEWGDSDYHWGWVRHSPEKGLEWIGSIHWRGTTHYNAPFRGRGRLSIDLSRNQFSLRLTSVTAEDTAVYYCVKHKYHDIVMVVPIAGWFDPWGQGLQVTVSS
Chain of 5345_I01 (PGT-137) (antibody) (VL): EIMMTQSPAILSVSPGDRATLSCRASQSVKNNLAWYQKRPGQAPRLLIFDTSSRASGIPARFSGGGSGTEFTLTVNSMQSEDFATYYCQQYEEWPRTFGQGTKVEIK

Substance	IC50 (µg/mL), pseudovirus neutralization [1]	IC50 neutralization [2]	IC50 [3]	IC50 (µg/mL), pseudovirus neutralization [4]	IC50 (µg/mL), pseudovirus neutralization [5]	IC50 (µg/mL), pseudovirus neutralization [6]	IC50 neutralization [7]	IC50 neutralization [8]	IC50 (µg/mL), pseudovirus neutralization [9]	IC50 (µg/mL), pseudovirus neutralization [10]	IC50 (µg/mL), pseudovirus neutralization [11]	IC50 (µg/mL), pseudovirus neutralization [12]	neutralization IC50 (pseudovirus) [24]	IC50 neutralization [26]	IC50 neutralization [28]	IC50 neutralization [30]	further results
5136_H01 (PGT-131) (antibody)	0.854 µg/mL	> 50 µg/mL	> 50 µg/mL	> 50 µg/mL	> 50 µg/mL	0.03 µg/mL	> 50 µg/mL	0.088 µg/mL	> 50 µg/mL	> 50 µg/mL	> 50 µg/mL	> 50 µg/mL					
5145_B14 (PGT-127) (antibody)																	IC50 (µg/mL), pseudovirus neutralization [13]: 0.017 µg/mL; IC50 [14]: > 50 µg/mL; IC50 (µg/mL), pseudovirus neutralization [15]: 0.279 µg/mL; IC50 (µg/mL), pseudovirus neutralization [16]: 21.5 µg/mL; IC50 (µg/mL), pseudovirus neutralization [17]: 0.05 µg/mL; IC50, pseudovirus neutralization [18]: 1.95 µg/mL; IC50, pseudovirus neutralization [19]: > 50 µg/mL; IC50 (µg/mL), pseudovirus neutralization [20]: > 50 µg/mL; IC50 (µg/mL), pseudovirus neutralization [21]: > 50 µg/mL; IC50 (µg/mL), pseudovirus neutralization [22]: > 50 µg/mL; IC50 (µg/mL), pseudovirus neutralization [23]: > 50 µg/mL
5147_N06 (PGT-130) (antibody)	0.959 µg/mL	> 50 µg/mL	> 50 µg/mL	> 50 µg/mL	> 50 µg/mL	0.01 µg/mL	5.18 µg/mL	0.023 µg/mL	> 50 µg/mL	> 50 µg/mL	> 50 µg/mL	> 50 µg/mL	1.12 µg/mL	> 10 µg/mL	0.0173 µg/mL	> 10 µg/mL	Neutralization by PGT-130, IC50 [24]: 1.12 µg/mL; Neutralization by PGT-130, IC80 [24]: > 10 µg/mL; Neutralization by PGT-130, IC90 [24]: > 10 µg/mL; Neutralization by PGT-130, IC95 [24]: > 10 µg/mL; Neutralization by PGT-130, IC50 [25]: > 10 µg/mL; Neutralization by PGT-130, IC80 [25]: > 10 µg/mL; Neutralization by PGT-130, IC90 [25]: > 10 µg/mL; Neutralization by PGT-130, IC95 [25]: > 10 µg/mL; neutralization IC50 (pseudovirus) [25]: > 10 µg/mL; Neutralization by PGT-130, IC50 [27]: > 10 µg/mL; Neutralization by PGT-130, IC80 [27]: > 10 µg/mL; Neutralization by PGT-130, IC90 [27]: > 10 µg/mL; Neutralization by PGT-130, IC95 [27]: > 10 µg/mL; neutralization IC50 (pseudovirus) [27]: > 10 µg/mL; Neutralization by PGT-130, IC50 [29]: > 10 µg/mL; Neutralization by PGT-130, IC80 [29]: > 10 µg/mL; Neutralization by PGT-130, IC90 [29]: > 10 µg/mL; Neutralization by PGT-130, IC95 [29]: > 10 µg/mL; neutralization IC50 (pseudovirus) [29]: > 10 µg/mL
5329_C19 (PGT-136) (antibody)	> 50 µg/mL	> 50 µg/mL	> 50 µg/mL	> 50 µg/mL	> 50 µg/mL	> 50 µg/mL	> 50 µg/mL	> 50 µg/mL	> 50 µg/mL	> 50 µg/mL	> 50 µg/mL	33.7 µg/mL	> 10 µg/mL	> 10 µg/mL	0.0065 µg/mL	> 10 µg/mL	IC50 (neutralizing activity, pseudovirus) [25]: > 10 µg/mL; IC50 (neutralizing activity, pseudovirus) [27]: > 10 µg/mL; IC50 (neutralizing activity, pseudovirus) [29]: > 10 µg/mL
5343_B08 (PGT-135) (antibody)	> 50 µg/mL	5.15 µg/mL	> 50 µg/mL	> 50 µg/mL	> 50 µg/mL	> 50 µg/mL	> 50 µg/mL	> 50 µg/mL	> 50 µg/mL	0.017 µg/mL	> 50 µg/mL	1.47 µg/mL	0.104 µg/mL	> 10 µg/mL	0.0123 µg/mL	6.79 µg/mL	IC50 (neutralizing activity, pseudovirus) [25]: > 10 µg/mL; IC50 (neutralizing activity, pseudovirus) [27]: > 10 µg/mL; IC50 (neutralizing activity, pseudovirus) [29]: > 10 µg/mL
5345_I01 (PGT-137) (antibody)	> 50 µg/mL	> 50 µg/mL	> 50 µg/mL	> 50 µg/mL	> 50 µg/mL	> 50 µg/mL	> 50 µg/mL	> 50 µg/mL	> 50 µg/mL	0.102 µg/mL	> 50 µg/mL	> 50 µg/mL					
PGV04 (antibody)																	IC50 (µg/mL), pseudovirus neutralization [31]: 0.056 µg/mL; IC50 (µg/mL), pseudovirus neutralization [32]: 0.019 µg/mL
VRC01 (antibody)																	IC50 [20]: 0.517 µg/mL; IC50 [21]: 1.89 µg/mL; IC50 [22]: 0.055 µg/mL; IC50 (µg/mL), pseudovirus neutralization [31]: 0.056 µg/mL; IC50 (µg/mL), pseudovirus neutralization [32]: 0.063 µg/mL
